# In the supplement of paper PMC12042874:
# ± gives the uncertainty stated by the source.
# Assay: amyloid nucleation score (Sup35N fusion, yeast selection) (log enrichment); library NNK3; higher = more nucleation; inactive = no reads after selection
# In short: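 Sup35N was fused to peptides of 20 random codons and expressed in psi-negative yeast, which were induced with 100 μM copper sulfate for 24 hours and then grown on medium lacking adenine and uracil for 7 days at 30°C. Plasmid inserts from input and output were sequenced on Illumina. The nucleation score is the DiMSum log enrichment of output over input reads, centred on the mode score of non-aggregating sequences. Sequences with under 100 input reads were left out, and random libraries had three technical output replicates.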
row,Substance,amyloid nucleation score
1,HLDQNLWPKQKQAHTLRTKW,inactive
2,HLLTAVILITIGVNRVTWWG,inactive
3,HLSRNVRLS,inactive
4,HLSTRLARFPLL,inactive
5,HMDSWSYWVIVV,inactive
6,HNCLVLVCDTCLSVYWNFSS,2.83 ± 0.052
7,HNDSYRMWGRGPPIVLT,inactive
8,HNITPESAKVCKVRRCLGSD,0.619 ± 0.2
9,HNMNR,inactive
10,HNPVG,1.23 ± 0.08
11,HNRLSQVTDQLGRLVSRSLR,inactive
12,HNSQLWLVPSVFTKRLCHIN,inactive
13,HPWEARGHPVLHERRNLHSI,inactive
14,HQGFE,inactive
15,HQVKVIVCCVTYVVQYVVMM,inactive
16,HRHNVGLCCAGDWHLVELGS,2.06 ± 0.064
17,HRIRVVENLPHCVLSSRMPL,inactive
18,HRREMSHCKREPWKSINFYW,inactive
19,HSAVE,inactive
20,HSDMLDYVSMVFFMVIRAGM,inactive
21,HSFREYKRVNLYYPFYKDCL,0.467 ± 0.13
22,HSRGENR,inactive
23,HSRLFLGNVTCYWVHEVSLI,inactive

row,Substance,amyloid nucleation score
1,HSSKSTGTYFGNMS,inactive
2,HSWNFGVCG,0.229 ± 0.2
3,HTESTGLSTPWVHL,inactive
4,HTFYFYSMSSGFKRHETTSG,inactive
5,HTGMHCTMGESRTSV,0.375 ± 0.18
6,HTILENFSSLVVMRDGRRNG,-0.275 ± 0.52
7,HTTIQETFVRIPRLCRWHRR,inactive
8,HVGCLIYDIQCETPGSHPSR,inactive
9,HVIFFYILAFYNHSMGRTAV,inactive
10,HVMGANREPF,inactive
11,HVNSMA,inactive
12,HVTIYGPET,inactive
13,HVVVFDYLLSVLCIVDRVEG,inactive
14,HWGHVHLVIRLPVMPDSDNR,inactive
15,HWGTMNGSPSFFPITVRCGG,inactive
16,HWIHGRR,inactive
17,HWYGTMLKLFNVLKPMGPKI,inactive
18,HYINYINLQMVYFDVGQMYC,2.96 ± 0.062
19,HYKKYITPVQRVGCADPSHC,inactive
20,HYLHRG,inactive
21,HYMLGSLSPVWLFFL,inactive
22,HYNVFGGRLSSSRNMYKGVY,inactive
23,HYRIESTVLE,-0.772 ± 0.8

row,Substance,amyloid nucleation score
1,HYSAREWLLLCIMVCDVVVW,inactive
2,HYTHSNLQAPDPH,inactive
3,IAFGVLVDDSDCCIDTYEEE,inactive
4,IAGCMGNCGLCRAMVICWMN,-0.409 ± 0.7
5,IALGNVRISRYRVLWAYLSS,inactive
6,IALTTRVN,inactive
7,IANTHFIIM,1.14 ± 0.13
8,IATCTRFIDYVYRDVSSGPC,0.725 ± 0.11
9,IAVERMIGLLPGSYF,inactive
10,IAVPRWKDSDTQKVV,inactive
11,ICELPNIYDVS,inactive
12,ICEVNCGLVIWWVRRFEGAS,inactive
13,ICRHLSIGG,inactive
14,ICRLRPLSWMWFAAYSCLFN,inactive
15,ICYPLFFCNAEWRFEEPCVL,2.57 ± 0.075
16,ICYTYNGPRSSVGVVLLGQ,inactive
17,IDIESL,inactive
18,IDISIL,inactive
19,IDRVMCNHDSIRQQLSLLSV,inactive
20,IDVMEYMLASYRVSWYRGLA,inactive
21,IDVYLGLYMRRVSVLETHCS,2.02 ± 0.087
22,IDVYRFRKGA,inactive
23,IEACSVSM,0.059 ± 0.98

row,Substance,amyloid nucleation score
1,IENQSRCLLTNVATVN,inactive
2,IESSYFNNNRFGRHVVKQVG,inactive
3,IETGSKYVAVRARLQSVMDG,inactive
4,IEYWFASRTFWSCRNMVRH,-0.342 ± 0.98
5,IFCGPCLSSYRPKWTGMTSY,2.12 ± 0.06
6,IFCKPWGSSFRIEPVAGTWI,inactive
7,IFFSIVSWKDAGCSEAINCQ,inactive
8,IFFVTVYQTNHHKSTLRCTN,2.33 ± 0.087
9,IFGSAFFRYYLCITQFCEYS,inactive
10,IFLAGDMC,inactive
11,IFLKHIPRHSSSKTMTANCP,inactive
12,IFLRYSLSSRYHRCLLLKES,inactive
13,IFPNLACSFRFCTRPYRSSM,0.571 ± 0.25
14,IFSNLGVVNLCRACFKYSNI,2.92 ± 0.059
15,IFVLDASMVMSFYVSVDASS,0.989 ± 0.093
16,IFYVCRIIWCTERQVGKLGL,inactive
17,IGEMNTPMPAMKFVMRWLDH,0.845 ± 0.13
18,IGFNA,inactive
19,IGIIFSKVWSPPDDMHT,1.28 ± 0.095
20,IGLSAKIRFWVMWRMRHTR,inactive
21,IGPVVGGYRYMCPASDHK,inactive
22,IHCLLLDRVTNLFLTMQAG,inactive
23,IHCSSWFELS,inactive

row,Substance,amyloid nucleation score
1,IHCYCS,inactive
2,IHGKGGLWSHSISIHWNN,inactive
3,IHLIVWGPSSTLVMVFMEVM,inactive
4,IHVDLYN,inactive
5,IHYGEYNFLGKSRWNHLFFF,inactive
6,IIFFYGGS,1.9 ± 0.08
7,IIGWDDFLLVYNIKLYHNS,inactive
8,IILLSGDSSSRIQEVKVGKK,inactive
9,IINFIVCMMSVQNMCCALFG,1.39 ± 0.1
10,IIPVTSRDYSRKPYPTLERV,inactive
11,IISQIRCFNLPEVPSSTMCL,inactive
12,IITVSGPLVVLVLSGKGSNN,2.42 ± 0.062
13,IIVRSTDGLSCRSDSIYECD,inactive
14,IKFDGIIADFSSITVVLECT,0.708 ± 0.25
15,IKFVPRA,inactive
16,IKGFRGLLFEVSYHSPELGW,inactive
17,IKGLAPRFAVGLDNLMSESM,inactive
18,IKIMHLSQPMDSMSLLHHG,inactive
19,IKLFLIHTTPSFPNTREHDL,inactive
20,IKPCGCSVLDIRT,inactive
21,IKQGYRAHLWWIVVNRLMFD,inactive
22,IKSKNAVCCHFATTMQDSLT,inactive
23,ILASKALQQLLQGLTLV,-0.375 ± 0.98

row,Substance,amyloid nucleation score
1,ILCQIDAKDPKPLMTRGLRL,inactive
2,ILEYAVVNHQVNLVIVSIGH,1.65 ± 0.068
3,ILFGGRNGKWLVEPGLSRVL,0.84 ± 0.23
4,ILGAILLSMFDSLYLGGEWR,inactive
5,ILKVVWYNSPEG,0.898 ± 0.16
6,ILMQNSETWSLYPNTA,inactive
7,ILNISCFYEWYDHTLNSQSV,-0.203 ± 0.42
8,ILNTCYISHFPFQL,2.33 ± 0.087
9,ILNYLRENCQKVTGRGA,-0.679 ± 0.96
10,ILQTLQDVRVRGMDISTASL,inactive
11,ILQVFKIMFKRRGLSFHLGI,inactive
12,ILQYRYKGWNRKGYHQQPVI,inactive
13,ILRFFVCLSHKNVDFICSAR,inactive
14,ILRSLVSLWYGCDCW,0.661 ± 0.16
15,ILSDMTGDHNSINFDMYSGI,inactive
16,ILTCFFSQEMIWHFLDTYDY,0.522 ± 0.24
17,ILTGILDFFFGTSNSRYRNG,inactive
18,ILTHIVWLFVRLSCMNWNWL,inactive
19,ILTISNTAKKSDW,inactive
20,ILTLTSRPLLLNLKKPFWVF,inactive
21,ILVCCISVETTHDNGPEVVG,2.22 ± 0.061
22,ILYNFEDVLWAGSLRIGLNL,inactive
23,ILYRCDCAFFYPLGLLFSRC,inactive

row,Substance,amyloid nucleation score
1,IMCIYEGAVSMYMRVWSNMS,inactive
2,IMEIMVNTWGNVTVRNSWRL,1.23 ± 0.14
3,IMKRFVMFLCFSISIWMFVV,inactive
4,IMLKGS,inactive
5,IMSVRIGSLGVMSHWSLYSY,inactive
6,IMTLFTILVTLMTMCLDQFV,inactive
7,IMVAMGW,inactive
8,IMYPIRSSGLEPLNMCGYQA,inactive
9,INNAPFNLPLANK,inactive
10,INSDSSQFSYSSLGKVIGMY,inactive
11,INSVSRGCINHFASVEGPCI,inactive
12,INVTLCCTMYD,3.02 ± 0.053
13,INWLWFLMHIIQI,inactive
14,IPCLQVYFTSTPNPSWSHGH,inactive
15,IPFFIGCHNKCRVYLWVAVG,inactive
16,IPGALGNKAICTRASSRRVG,inactive
17,IPGAVISEYYKSYRSSTIPP,inactive
18,IPNMDAFLERRPREYNWPVA,inactive
19,IPSNTKSFSH,inactive
20,IPVAIMLS,inactive
21,IPVFMLLMYRVSMMDSSSKS,inactive
